No end group written: not given here.
Experiments:
SEMG2(442-453) fragment = target: T1, SEMG2(442-453) fragment (human); experiment: ELISA, immobilized antigen SEMG2 (442-453)
T1 peptide: IHGKSQNQVTIP
Source text: (§1) To clearly distinguish the binding epitopes of blocking antibodies (i.e., antibodies that can inhibit the binding between SEMG2 and CD27) and non-blocking antibodies, a corresponding ELISA analysis method was established. […] Anti-mouse or anti-rabbit secondary antibodies were then used to detect the corresponding bound antibodies.

QIEKLVEAKSQIQ = target: T2, QIEKLVEAKSQIQ; experiment: ELISA, immobilized peptide QIEKLVEAKSQIQ
T2 construct: member of the group m41; position 504 is glycine in SEMG2 and the sheet prints alanine there
T2 peptide: QIEKLVEAKSQIQ
Summary of the method: (§2)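 ELISA; read-out OD₄₅₀. Antibody binding to substituted peptides was used for epitope mapping and to assess per-residue importance.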

QIEKLVEGKAQIQ = target: T3, QIEKLVEGKAQIQ (not fully specified); experiment: ELISA, immobilized peptide QIEKLVEGKAQIQ
T3 construct: alanine at this position
T3 peptide: QIEKLVEGKAQIQ
Summary of the method: as §2

AIEKLVEGKSQIQ = target: T4, AIEKLVEGKSQIQ (not fully specified); experiment: ELISA, immobilized peptide AIEKLVEGKSQIQ
T4 construct: member of the group m41; the text speaks of glycine substitution, the sheet prints alanine
T4 peptide: AIEKLVEGKSQIQ
Summary of the method: as §2

[1] = target: T5, human SEMG2 full-length protein (human, UniProt Q02383 24-582, limits assumed); experiment: ELISA, plate coated with SEMG2 protein, anti-mouse secondary antibody; the EC50 table prints no unit, the axis is log (antibody concentration, nM)
T5 construct: also called SEMG2 protein; semenogelin 2
T5 sequence: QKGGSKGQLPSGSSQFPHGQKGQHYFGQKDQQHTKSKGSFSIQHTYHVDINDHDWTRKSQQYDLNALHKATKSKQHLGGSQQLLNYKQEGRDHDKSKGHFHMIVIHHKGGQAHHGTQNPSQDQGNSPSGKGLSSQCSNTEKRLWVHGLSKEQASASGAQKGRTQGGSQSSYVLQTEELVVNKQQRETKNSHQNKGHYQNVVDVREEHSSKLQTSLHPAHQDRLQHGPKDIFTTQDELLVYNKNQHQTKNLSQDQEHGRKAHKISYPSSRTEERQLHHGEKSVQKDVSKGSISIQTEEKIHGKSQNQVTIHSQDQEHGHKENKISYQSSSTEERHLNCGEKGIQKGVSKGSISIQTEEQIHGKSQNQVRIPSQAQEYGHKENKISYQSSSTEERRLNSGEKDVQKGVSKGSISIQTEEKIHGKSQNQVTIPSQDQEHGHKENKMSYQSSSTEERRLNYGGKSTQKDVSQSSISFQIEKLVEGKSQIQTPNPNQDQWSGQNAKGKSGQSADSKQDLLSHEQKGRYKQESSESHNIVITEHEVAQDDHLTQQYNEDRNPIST

QAEKLVEGKSQIQ = target: T6, QAEKLVEGKSQIQ (not fully specified); experiment: ELISA, immobilized peptide QAEKLVEGKSQIQ
T6 construct: member of the group m41; the text speaks of glycine substitution, the sheet prints alanine
T6 peptide: QAEKLVEGKSQIQ
Summary of the method: as §2

[2] = target: T7, SEMG2(497-509) polypeptide QIEKLVEGKSQIQ (human); experiment: ELISA, immobilized antigen SEMG2 (497-509)
T7 peptide: QIEKLVEGKSQIQ
Source text: as §1

QIEKLVAGKSQIQ = target: T8, QIEKLVAGKSQIQ (not fully specified); experiment: ELISA, immobilized peptide QIEKLVAGKSQIQ
T8 construct: member of the group m41; the text speaks of glycine substitution, the sheet prints alanine
T8 peptide: QIEKLVAGKSQIQ
Summary of the method: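 Epitope mapping of blocking monoclonal antibodies by ELISA on the immobilized peptide. Bound antibodies detected with anti-mouse or anti-rabbit secondary antibodies, read as OD₄₅₀ absorbance.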

QIEKAVEGKSQIQ = target: T9, QIEKAVEGKSQIQ (not fully specified); experiment: ELISA, immobilized peptide QIEKAVEGKSQIQ
T9 construct: alanine at this position
T9 peptide: QIEKAVEGKSQIQ
Summary of the method: as §2

QIEKLAEGKSQIQ = target: T10, QIEKLAEGKSQIQ (not fully specified); experiment: ELISA, immobilized peptide QIEKLAEGKSQIQ
T10 construct: member of the group m41; the text speaks of glycine substitution, the sheet prints alanine
T10 peptide: QIEKLAEGKSQIQ
Summary of the method: as §2

QIAKLVEGKSQIQ = target: T11, QIAKLVEGKSQIQ (not fully specified); experiment: ELISA, immobilized peptide QIAKLVEGKSQIQ
T11 construct: member of the group m41; the text speaks of glycine substitution, the sheet prints alanine
T11 peptide: QIAKLVEGKSQIQ

QIEKLVEGKSAIQ = target: T12, QIEKLVEGKSAIQ (not fully specified); experiment: ELISA, immobilized peptide QIEKLVEGKSAIQ
T12 construct: alanine at this position
T12 peptide: QIEKLVEGKSAIQ
Summary of the method: as §2

QIEKLVEGKSQAQ = target: T13, QIEKLVEGKSQAQ (not fully specified); experiment: ELISA, immobilized peptide QIEKLVEGKSQAQ
T13 construct: member of the group m41; the text speaks of glycine substitution, the sheet prints alanine
T13 peptide: QIEKLVEGKSQAQ
Summary of the method: as §2

[3] = target: T14, BSA-conjugated human SEMG2 (497-509) polypeptide (human, also: coupled to BSA, site not given here); experiment: ELISA on BSA-SEMG2 (497-509), antibody titrated
T14 peptide: QIEKLVEGKSQIQ

[4] = target: T5, human SEMG2 full-length protein; experiment: ELISA, immobilized antigen SEMG2 (1-582)
Source text: as §1

QIEALVEGKSQIQ = target: T15, QIEALVEGKSQIQ (not fully specified); experiment: ELISA, immobilized peptide QIEALVEGKSQIQ
T15 construct: member of the group m41; the text speaks of glycine substitution, the sheet prints alanine
T15 peptide: QIEALVEGKSQIQ
Summary of the method: as §2

QIEKLVEGASQIQ = target: T16, QIEKLVEGASQIQ (not fully specified); experiment: ELISA, immobilized peptide QIEKLVEGASQIQ
T16 construct: member of the group m41; the text speaks of glycine substitution, the sheet prints alanine
T16 peptide: QIEKLVEGASQIQ
Summary of the method: as §2

SEMG2(563-574) fragment = target: T17, SEMG2(563-574) fragment (human); experiment: ELISA, immobilized antigen SEMG2 (563-574)
T17 peptide: VAQDDHLTQQYN
Source text: as §1

SEMG2(354-403) fragment = target: T18, SEMG2(354-403) fragment (human); experiment: ELISA, immobilized antigen SEMG2 (354-403)
T18 peptide: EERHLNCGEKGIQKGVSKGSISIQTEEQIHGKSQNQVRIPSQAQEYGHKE
Source text: as §1

[5] = target: T7, SEMG2(497-509) polypeptide QIEKLVEGKSQIQ; experiment: ELISA, immobilized peptide QIEKLVEGKSQIQ
Summary of the method: as §2

[6] = target: T5, human SEMG2 full-length protein; experiment: biolayer interferometry (ForteBio Blitz or Gator)
Summary of the method: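 KD of antibodies binding human SEMG2 measured by biolayer interferometry, with antibody and SEMG2 in SD buffer. KD derived by binding-curve analysis.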

[7] = target: T5, human SEMG2 full-length protein; experiment: ELISA on SEMG2 protein, run beside the humanized antibodies; the EC50 table prints no unit, the axis is log (antibody concentration, nM)
QIEKLVEGKSQIA = target: T19, QIEKLVEGKSQIA (not fully specified); experiment: ELISA, immobilized peptide QIEKLVEGKSQIA
T19 construct: alanine at this position
T19 peptide: QIEKLVEGKSQIA
Summary of the method: as §2

[8] = target: T14, BSA-conjugated human SEMG2 (497-509) …; experiment: ELISA on BSA-S2 (497-509); the EC50 table prints no unit, the axis is log (antibody concentration, nM)
[9] = target: T5, human SEMG2 full-length protein; experiment: ELISA on SEMG2; the EC50 table prints no unit, the axis is log (antibody concentration, nM)
[10] = target: T5, human SEMG2 full-length protein; experiment: ELISA (FIG. 21B-D)
[11] = target: T14, BSA-conjugated human SEMG2 (497-509) …; experiment: ELISA (FIG. 21B-D)
[12] = target: T14, BSA-conjugated human SEMG2 (497-509) …; experiment: ELISA, OD450 against antibody concentration (FIG. 21)
[13] = target: T7, SEMG2(497-509) polypeptide QIEKLVEGKSQIQ; experiment: phage display screening on BSA- and KLH-coupled peptide, ELISA
Source text: Specifically, the preparation of polypeptide antigens and the screening of human natural antibody library were firstly performed. […] ELISA was used to select clones that bind to antigenic epitopes for preliminary screening. Different unique sequences were obtained after sequencing single colonies, sorted according to affinity sorting, and full-length antibodies were constructed from antigen-binding fragments (Fab) with relatively high affinity. The binding ability and blocking function tests were performed after purification, that is, the effect of the antibody on binding between SEMG2 and CD27 was determined by the ELISA experiment.

[14] = target: T5, human SEMG2 full-length protein; experiment: ELISA on SEMG2; the EC50 table prints no unit, the axis is log (antibody concentration, nM); remark: listed apart in the source

B1: MM05 (antibody, IgG1, V domains shown)
VH: QVQLQQPGAELVRPGASVKLSCEASGYTFTSYWMNWVKQRPGQGLEWIGMIDPSDSETHYNQMFKDKATLTVDKSSSTAYMQLSSLTSEDSAVYYCARYLGGKEGSFDYWGQGTTLTVSS
VL: DIVMSQSPSSLAVSAGEKVTMSCKSSQSLLNSRTRKNYLAWYQQKPGQSPKLLIYWASTRESGVPDRFTGSGSGTDFTLTISSVQAEDLAVYYCKQSYSLPWTFGGGTKLEIKR
Question: With B1 as the binder, how does the A450 absorbance (SEMG2(442-453) fragment) read?
Answer: Its A450 absorbance is 0.009.

Question: Does B1 bind (SEMG2(442-453) fragment)?
Answer: Result: no binding

Question: And the OD450 absorbance (QIEKLVEAKSQIQ)?
Answer: The OD450 absorbance was 0.723.

Question: And the OD450 absorbance (QIEKLVEGKAQIQ)?
Answer: The OD450 absorbance was 0.168.

Question: And the OD450 absorbance (AIEKLVEGKSQIQ)?
Answer: The OD450 absorbance was 0.638.

Question: And the EC50 [1]?
Answer: Its EC50 is 0.535 nM.

Question: What about the OD450 absorbance (QAEKLVEGKSQIQ) of the same binder?
Answer: The OD450 absorbance was 0.796.

Question: What about the A450 absorbance [2] of the same binder?
Answer: The A450 absorbance was 1.17.

Question: What about the OD450 absorbance (QIEKLVAGKSQIQ) of the same binder?
Answer: Its OD450 absorbance is 0.615.

Question: And the OD450 absorbance (QIEKAVEGKSQIQ)?
Answer: The OD450 absorbance was 0.259.

Question: What about the OD450 absorbance (QIEKLAEGKSQIQ) of the same binder?
Answer: Its OD450 absorbance is 0.558.

Question: And the OD450 absorbance (QIAKLVEGKSQIQ)?
Answer: Its OD450 absorbance is 0.728.

Question: And the OD450 absorbance (QIEKLVEGKSAIQ)?
Answer: Its OD450 absorbance is 1.26.

Question: And the OD450 absorbance (QIEKLVEGKSQAQ)?
Answer: The OD450 absorbance was 0.868.

Question: And the “EC50 (read off the curve)” value [3]?
Answer: Its value is about 8 ng/mL.

Question: What about the A450 absorbance [4] of the same binder?
Answer: The A450 absorbance was 1.17.

Question: What about the OD450 absorbance (QIEALVEGKSQIQ) of the same binder?
Answer: Its OD450 absorbance is 0.726.

Question: And the OD450 absorbance (QIEKLVEGASQIQ)?
Answer: The OD450 absorbance was 0.852.

Question: Does B1 bind (SEMG2(563-574) fragment)?
Answer: Result: no binding

Question: And the A450 absorbance (SEMG2(354-403) fragment)?
Answer: The A450 absorbance was 0.008.

Question: Does B1 bind (SEMG2(354-403) fragment)?
Answer: Result: no binding

Question: And the OD450 absorbance [5]?
Answer: Its OD450 absorbance is 1.27.

Question: What about the Kd [6] of the same binder?
Answer: Its Kd is 5.28 nM.

Question: What about the EC50 [7] of the same binder?
Answer: Its EC50 is 0.147 nM.

Question: What about the OD450 absorbance (QIEKLVEGKSQIA) of the same binder?
Answer: The OD450 absorbance was 1.21.

B2: 96-10R-10 (antibody, V domains shown)
VH: QVQLLESGGGLVQPGGSLRLSCSASGFTFSSRAMHWVRQAPGKGLEYVSAISSNGGSTYYADSVKGRFTISRDNSKNTLYLQMSSLRAEDTAVYYCVIEGGSTGSTTSGAFDIWGQGTMVTVSS
VL: DIQMIQSPPSVSASVGDTVTIACRANQGIDSWLAWYQQKPGRAPKLLIYSASRLQSGVPSRFSGGGSGTDFALTISNLQPEDFATYYCQQALSLPITFGQGTRLEIK
Question: Which results are given for B2?
Answer: EC50 [8]: 3.36 nM; EC50 [9]: 0.241 nM; fold higher affinity than the parent antibody (H88-96) [10]: > 10 fold; fold higher affinity than the parent antibody (H88-96) [11]: > 10 fold

B3: H88-93 (antibody, V domains shown)
VH: QITLKESGPTLVKPTQTLTLTCNFSGFSLTTSGVGVAWIRQPPGKALEWLALIYWDDDQRYSPSLKSRLSVTKHTSKDQVVLTMTNVGPVDTATYYCAHLSYGPGWGYYMDVWGNGTMVTVSS
VL: EIVLTQSPGTLSLSPGERASLSCRASQSVRNNYLAWYQQKPGQAPRLLIFGASNRATGIPDTFSGSGSGTDFTLTISRLEPEDFAVYYCQQYGHSPITFGQGTRLEIK
notes: Fully human full-length antibody built from a phage Fab
Question: Does B3 bind [12]?
Answer: Result: binds

Question: Does B3 bind [13]?
Answer: Result: binds

Question: What about the EC50 [14] of the same binder?
Answer: The EC50 was 0.0636 nM.

Question: And the Kd [6]?
Answer: Its Kd is 4.6 nM.
